# Experimental data as given in IntAct's records for PubMed 29892012.
# B1: UBX domain-containing protein 6 (Homo sapiens), Q9BZV1 (parent)
# chain: MKKFFQEFKADIKFKSAGPGQKLKESVGEKAHKEKPNQPAPRPPRQGPTNEAQMAAAAALARLEQKQSRAWGPTSQDTIRNQVRKELQAEATVSGSPEAPGTNVVSEPREEGSAHLAVPGVYFTCPLTGATLRKDQRDACIKEAILLHFSTDPVAASIMKIYTFNKDQDRVKLGVDTIAKYLDNIHLHPEEEKYRKIKLQNKVFQERINCLEGTHEFFEAIGFQKVLLPAQDQEDPEEFYVLSETTLAQPQSLERHKEQLLAAEPVRAKLDRQRRVFQPSPLASQFELPGDFFNLTAEEIKREQRLRSEAVERLSVLRTKAMREKEEQRGLRKYNYTLLRVRLPDGCLLQGTFYARERLGAVYGFVREALQSDWLPFELLASGGQKLSEDENLALNECGLVPSALLTFSWDMAVLEDIKAAGAEPDSILKPELLSAIEKLL
# partner: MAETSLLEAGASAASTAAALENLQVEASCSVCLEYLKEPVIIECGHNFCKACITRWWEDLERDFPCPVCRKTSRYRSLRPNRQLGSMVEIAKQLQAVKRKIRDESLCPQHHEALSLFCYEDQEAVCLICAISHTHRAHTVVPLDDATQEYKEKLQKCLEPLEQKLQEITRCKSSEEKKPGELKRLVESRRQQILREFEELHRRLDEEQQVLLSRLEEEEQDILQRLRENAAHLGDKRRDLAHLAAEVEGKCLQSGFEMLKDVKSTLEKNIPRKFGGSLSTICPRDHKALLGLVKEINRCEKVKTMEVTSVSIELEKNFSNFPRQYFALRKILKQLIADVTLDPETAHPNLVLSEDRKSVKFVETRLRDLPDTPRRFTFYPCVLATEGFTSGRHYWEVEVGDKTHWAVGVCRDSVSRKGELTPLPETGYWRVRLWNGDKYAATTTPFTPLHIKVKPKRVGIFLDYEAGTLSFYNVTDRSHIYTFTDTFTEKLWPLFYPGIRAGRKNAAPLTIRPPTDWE
# B2: Ribosome assembly protein METTL17, mitochondrial (Homo sapiens), Q9H7H0 (parent)
# chain: MAAALKCLLTLGRWCPGLGVAPQARALAALVPGVTQVDNKSGFLQKRPHRQHPGILKLPHVRLPQALANGAQLLLLGSAGPTMENQVQTLTSYLWSRHLPVEPEELQRRARHLEKKFLENPDLSQTEEKLRGAVLHALRKTTYHWQELSYTEGLSLVYMAARLDGGFAAVSRAFHEIRARNPAFQPQTLMDFGSGTGSVTWAAHSIWGQSLREYMCVDRSAAMLVLAEKLLKGGSESGEPYIPGVFFRQFLPVSPKVQFDVVVSAFSLSELPSKADRTEVVQTLWRKTGHFLVLVENGTKAGHSLLMDARDLVLKGKEKSPLDPRPGFVFAPCPHELPCPQLTNLACSFSQAYHPIPFSWNKKPKEEKFSMVILARGSPEEAHRWPRITQPVLKRPRHVHCHLCCPDGHMQHAVLTARRHGRDLYRCARVSSWGDLLPVLTPSAFPPSTAQDPSES
# partner: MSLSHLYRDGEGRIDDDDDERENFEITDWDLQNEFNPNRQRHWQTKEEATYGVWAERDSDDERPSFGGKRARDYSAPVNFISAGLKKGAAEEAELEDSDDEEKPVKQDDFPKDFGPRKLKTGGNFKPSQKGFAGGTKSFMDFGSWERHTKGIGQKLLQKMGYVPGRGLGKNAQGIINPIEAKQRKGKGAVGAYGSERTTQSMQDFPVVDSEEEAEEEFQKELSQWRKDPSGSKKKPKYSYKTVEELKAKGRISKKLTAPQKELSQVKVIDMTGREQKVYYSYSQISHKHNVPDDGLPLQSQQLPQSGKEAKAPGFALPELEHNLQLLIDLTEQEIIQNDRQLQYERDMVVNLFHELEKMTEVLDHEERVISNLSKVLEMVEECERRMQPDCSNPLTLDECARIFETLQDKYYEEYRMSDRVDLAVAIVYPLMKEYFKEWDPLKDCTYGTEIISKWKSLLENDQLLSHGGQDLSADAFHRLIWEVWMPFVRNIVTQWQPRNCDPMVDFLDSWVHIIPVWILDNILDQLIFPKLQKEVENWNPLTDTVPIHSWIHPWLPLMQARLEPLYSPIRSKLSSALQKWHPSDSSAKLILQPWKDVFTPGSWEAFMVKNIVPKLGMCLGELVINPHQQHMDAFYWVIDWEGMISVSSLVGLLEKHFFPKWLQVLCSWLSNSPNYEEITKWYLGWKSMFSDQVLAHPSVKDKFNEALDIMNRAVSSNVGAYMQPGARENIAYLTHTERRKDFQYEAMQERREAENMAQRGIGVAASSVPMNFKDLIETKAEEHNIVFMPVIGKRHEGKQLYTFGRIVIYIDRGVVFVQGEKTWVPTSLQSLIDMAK
# B3: E3 ubiquitin-protein ligase RNF31 (Homo sapiens), Q96EP0 (parent)
# chain: MPGEEEERAFLVAREELASALRRDSGQAFSLEQLRPLLASSLPLAARYLQLDAARLVRCNAHGEPRNYLNTLSTALNILEKYGRNLLSPQRPRYWRGVKFNNPVFRSTVDAVQGGRDVLRLYGYTEEQPDGLSFPEGQEEPDEHQVATVTLEVLLLRTELSLLLQNTHPRQQALEQLLEDKVEDDMLQLSEFDPLLREIAPGPLTTPSVPGSTPGPCFLCGSAPGTLHCPSCKQALCPACDHLFHGHPSRAHHLRQTLPGVLQGTHLSPSLPASAQPRPQSTSLLALGDSSLSSPNPASAHLPWHCAACAMLNEPWAVLCVACDRPRGCKGLGLGTEGPQGTGGLEPDLARGRWACQSCTFENEAAAVLCSICERPRLAQPPSLVVDSRDAGICLQPLQQGDALLASAQSQVWYCIHCTFCNSSPGWVCVMCNRTSSPIPAQHAPRPYASSLEKGPPKPGPPRRLSAPLPSSCGDPEKQRQDKMREEGLQLVSMIREGEAAGACPEEIFSALQYSGTEVPLQWLRSELPYVLEMVAELAGQQDPGLGAFSCQEARRAWLDRHGNLDEAVEECVRTRRRKVQELQSLGFGPEEGSLQALFQHGGDVSRALTELQRQRLEPFRQRLWDSGPEPTPSWDGPDKQSLVRRLLAVYALPSWGRAELALSLLQETPRNYELGDVVEAVRHSQDRAFLRRLLAQECAVCGWALPHNRMQALTSCECTICPDCFRQHFTIALKEKHITDMVCPACGRPDLTDDTQLLSYFSTLDIQLRESLEPDAYALFHKKLTEGVLMRDPKFLWCAQCSFGFIYEREQLEATCPQCHQTFCVRCKRQWEEQHRGRSCEDFQNWKRMNDPEYQAQGLAMYLQENGIDCPKCKFSYALARGGCMHFHCTQCRHQFCSGCYNAFYAKNKCPEPNCRVKKSLHGHHPRDCLFYLRDWTALRLQKLLQDNNVMFNTEPPAGARAVPGGGCRVIEQKEVPNGLRDEACGKETPAGYAGLCQAHYKEYLVSLINAHSLDPATLYEVEELETATERYLHVRPQPLAGEDPPAYQARLLQKLTEEVPLGQSIPRRRK
# B4: Ribosome assembly protein METTL17, mitochondrial (Homo sapiens), Q9H7H0 (parent)
# chain: B2 chain
# partner: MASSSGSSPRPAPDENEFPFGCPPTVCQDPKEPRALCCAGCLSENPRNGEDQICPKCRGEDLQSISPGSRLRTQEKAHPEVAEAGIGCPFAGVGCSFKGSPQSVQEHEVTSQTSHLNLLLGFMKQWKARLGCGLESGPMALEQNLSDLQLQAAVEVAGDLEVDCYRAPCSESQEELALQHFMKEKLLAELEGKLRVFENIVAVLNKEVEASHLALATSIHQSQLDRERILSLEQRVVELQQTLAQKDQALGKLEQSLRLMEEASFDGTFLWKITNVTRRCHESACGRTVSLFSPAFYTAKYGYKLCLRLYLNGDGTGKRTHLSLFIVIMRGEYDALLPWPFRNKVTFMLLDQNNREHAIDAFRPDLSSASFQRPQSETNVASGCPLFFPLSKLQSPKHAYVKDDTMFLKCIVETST
# B5: Inositol polyphosphate 5-phosphatase K (Homo sapiens), Q9BT40 (parent)
# chain: MSSRKLSGPKGRRLSIHVVTWNVASAAPPLDLSDLLQLNNRNLNLDIYVIGLQELNSGIISLLSDAAFNDSWSSFLMDVLSPLSFIKVSHVRMQGILLLVFAKYQHLPYIQILSTKSTPTGLFGYWGNKGGVNICLKLYGYYVSIINCHLPPHISNNYQRLEHFDRILEMQNCEGRDIPNILDHDLIIWFGDMNFRIEDFGLHFVRESIKNRCYGGLWEKDQLSIAKKHDPLLREFQEGRLLFPPTYKFDRNSNDYDTSEKKRKPAWTDRILWRLKRQPCAGPDTPIPPASHFSLSLRGYSSHMTYGISDHKPVSGTFDLELKPLVSAPLIVLMPEDLWTVENDMMVSYSSTSDFPSSPWDWIGLYKVGLRDVNDYVSYAWVGDSKVSCSDNLNQVYIDISNIPTTEDEFLLCYYSNSLRSVVGISRPFQIPPGSLREDPLGEAQPQI
# partner: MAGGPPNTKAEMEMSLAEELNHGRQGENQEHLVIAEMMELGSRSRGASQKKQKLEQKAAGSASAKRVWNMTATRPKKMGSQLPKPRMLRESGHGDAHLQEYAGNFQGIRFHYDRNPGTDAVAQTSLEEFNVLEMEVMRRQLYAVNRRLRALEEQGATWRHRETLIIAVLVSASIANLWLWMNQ
# Variants of: B1
# Details: with tri39_human TRIM39, Q9HCM9
row,Variant,effect of a mutation on the interaction
1,E391K,disrupting interaction strength

# Variants of: B2
# Details: with tfp11_human TFIP11, Q9UBB9
row,Variant,effect of a mutation on the interaction
1,R212H,disrupting interaction strength

# Variants of: B3
# Details: with hoil1_human RBCK1, Q9BYM8
# Sequence of hoil1_human RBCK1, Q9BYM8 (Q9BYM8 whole entry): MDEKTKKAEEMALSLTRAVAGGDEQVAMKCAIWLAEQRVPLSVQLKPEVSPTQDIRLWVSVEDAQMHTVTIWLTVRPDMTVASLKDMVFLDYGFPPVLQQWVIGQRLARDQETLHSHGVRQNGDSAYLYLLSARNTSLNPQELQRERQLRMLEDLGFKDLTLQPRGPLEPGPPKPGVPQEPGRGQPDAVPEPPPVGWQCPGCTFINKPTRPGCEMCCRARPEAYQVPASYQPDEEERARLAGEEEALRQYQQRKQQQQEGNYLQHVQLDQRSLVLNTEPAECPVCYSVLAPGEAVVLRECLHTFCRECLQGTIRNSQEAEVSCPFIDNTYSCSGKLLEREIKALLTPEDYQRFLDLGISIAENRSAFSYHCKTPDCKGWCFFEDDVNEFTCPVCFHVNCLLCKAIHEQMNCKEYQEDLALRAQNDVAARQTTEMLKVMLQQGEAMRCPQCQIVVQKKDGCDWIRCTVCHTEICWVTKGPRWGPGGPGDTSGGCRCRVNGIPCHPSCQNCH
row,Variant,effect of a mutation on the interaction
1,R646W,with no effect

# Variants of: B3
# Details: with ccd24_human CCDC24, Q8N4L8
# Sequence of ccd24_human CCDC24, Q8N4L8 (Q8N4L8 whole entry): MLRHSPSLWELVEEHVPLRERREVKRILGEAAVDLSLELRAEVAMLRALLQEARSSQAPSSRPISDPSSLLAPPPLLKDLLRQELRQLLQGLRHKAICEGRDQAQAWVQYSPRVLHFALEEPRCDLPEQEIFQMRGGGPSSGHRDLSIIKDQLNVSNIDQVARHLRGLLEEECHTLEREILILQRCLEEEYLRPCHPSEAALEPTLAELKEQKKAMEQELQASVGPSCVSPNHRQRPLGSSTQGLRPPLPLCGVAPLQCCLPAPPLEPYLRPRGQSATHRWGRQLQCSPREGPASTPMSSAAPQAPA
row,Variant,effect of a mutation on the interaction
1,R646W,with no effect

# Variants of: B4
# Details: with traf1_human TRAF1, Q13077
row,Variant,effect of a mutation on the interaction
1,R212H,with no effect

# Variants of: B5
# Details: with fate1_human FATE1, Q969F0
row,Variant,effect of a mutation on the interaction
1,R437K,disrupting interaction strength
